In patent publication US8241627B2, “Modified polypeptides stabilized in a desired conformation and methods for producing same” (The Center for Blood Research, Inc., priority 2000, dated 2012):

Key:
ICAM-1 [1] = biological target: T1, ICAM-1 (Homo sapiens, UniProt P05362); assay: Binding of LFA-1 or isolated I-domain transfectants to immobilized ICAM-1; format: cell-based; parameters: ICAM-1 was purified from human tonsil; from tissue; host or cells: human tonsil
Experimental: Clones of the transfectants that expressed similar levels of cell surface LFA-1, as determined by flow cytometry using monoclonal antibody TS2/4 (FIG. 3B), were tested for their ability to bind to immobilized ICAM-1, as previously described (Lu, C and Springer, T A (1997) J Immunol 159:268-278).
Briefly, ICAM-1 was purified from human tonsil, and coated to 96-well plates as described previously (Lu, C and Springer T A, (1997) J Immunol 159:268-278). Cells were labeled with a florescence dye 2′,7′-bis-(carboxyethyl)-5(and-6)-carboxyfluorescein, acetoxymethyl ester (BCECF-AM), and resuspended to 1×10^6/ml in L15/FBS. 50 μl cell suspension was mixed in ICAM-1 coated wells with an equal volume of L15/FBS in the absence or presence of monoclonal antibody (CBRLFA-1/2, 10 μg/ml). Monoclonal antibodies were used at final concentration of 1:20 hybridoma supernatant, 1:200 ascites, or μg/ml purified IgG. For testing the effect of divalent cations, BCECF-AM-labeled cells were washed 2× with TS buffer, pH7.5 (20 mM Tris, pH 7.5, 150 mMNaCl) containing 5 mM EDTA, followed by 2 washes with TS buffer, pH7.5. Cells were then resuspended to 5×10^5/ml in the TS buffer, pH7.5 supplemented with 1 mM MgCl2/CaCl2, MgCl2, MnCl2 mM EDTA, and 100 μl cell suspension was added to ICAM-1 coated wells. After incubation at 37° C. for 30 minutes, unbound cells were washed off on a Microplate Autowasher (Bio-Tek Instruments, Winooski, Vt.). The fluorescence content of total input cells and the bound cells in each well was quantitated on a Fluorescent Concentration Analyzer (IDEXX, Westbrook, Me.). The bound cells were expressed as a percentage of total input cells per sample well.
For generating stable K562 transfectants that express the I-domain on the surface, 20 μg of SspI-linearized pcDNA3.1/Hygro(+) containing the sequences encoding the I domain and the PDGFR transmembrane domain was used to transfect K562 cells by electroporation as described above. Transfectants were selected for resistance to 100 μg/ml hygromycin B, and were further subcloned by cell sorting and limiting dilution; clones that expressed similar levels of surface wild-type and mutant I domain-PDGFR were selected for functional studies. Stable cell lines were maintained in RPMI medium 1640 supplemented with 10% FBS and 100 μg/ml hygromycin B. Cell surface expression of the isolated I-domains was determined by flow cytometry using antibody TS1/22 to the I-domain (FIG. 7). Two clones from each transfectant were selected and tested for binding to immobilized ICAM-1, and similar results were obtained with each of the two clones (FIG. 8A).
If the constitutive ligand binding activity of mutant K287C/K294C is due to the formation of a disulfide bond between the introduced C287 and C294, disruption of the disulfide bond with a reducing agent would abolish ligand binding ability of the mutant. Accordingly, the transfectants were treated with the reducing agent DTT (10 mM) in L15/FBS containing Mg^2+ and Ca^2+, and the ability of transfectants to bind to ICAM-1 was assessed.
Furthermore, the effect of divalent cations on ligand binding of the isolated I-domains expressed on the surface of K562 transfectants was tested. The binding reactions were performed in HEPES/NaCl/glucose (20 mM HEPES, pH 7.5, 140 mM NaCl, 2 mg/ml glucose) supplemented with 1 mM […], 1 mM Mg^2+, or 1 mM EDTA.
Target sequence in this assay (P05362 28-532): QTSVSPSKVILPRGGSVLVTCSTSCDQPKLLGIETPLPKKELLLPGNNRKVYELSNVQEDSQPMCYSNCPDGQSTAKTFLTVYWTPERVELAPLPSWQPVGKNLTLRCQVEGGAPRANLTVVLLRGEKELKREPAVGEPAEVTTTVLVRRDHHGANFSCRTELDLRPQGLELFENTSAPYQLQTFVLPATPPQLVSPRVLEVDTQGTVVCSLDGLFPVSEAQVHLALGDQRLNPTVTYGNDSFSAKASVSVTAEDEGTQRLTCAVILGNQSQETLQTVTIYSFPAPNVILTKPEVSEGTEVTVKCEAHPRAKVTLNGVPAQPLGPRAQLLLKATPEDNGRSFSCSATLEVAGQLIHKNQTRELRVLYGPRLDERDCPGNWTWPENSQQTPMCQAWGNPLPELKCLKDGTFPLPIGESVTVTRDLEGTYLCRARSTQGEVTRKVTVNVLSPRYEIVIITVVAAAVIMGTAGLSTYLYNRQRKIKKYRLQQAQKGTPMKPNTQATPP

[2] = test system: K562 cells stably expressing wild-type LFA-1; assay: Inhibition by soluble I-domains of adhesion of LFA-1 expressing K562 cells to immobilized ICAM-1; format: cell-based, human; settings: LFA-1 activated by CBRLFA-1/2; 40 minutes at 37° C.
Experimental: The activity of the soluble open I-domain to inhibit LFA-1I-dependent adhesion was tested. In one study, K562 cells stably expressing wild-type LFA-1 were fluorescently labeled by BCECF and LFA-1 on the cell surface was activated by the activating monoclonal antibody, CBRLFA-1/2 in L15 media supplemented with FCS. The cells were subsequently incubated in ICAM-1 coated 96-well plastic plates in the presence or absence of 1-domains. After incubation for 40 minutes at 37° C., unbound cells were washed off on a Microplate Autowasher. The fluorescence content of total input cells and the bound cells in each well was quantitated on a Fluorescent Concentration Analyzer. The bound cells were expressed as a percentage of total input cells per sample well.

murine ICAM-1 = murine ICAM-1 (Mus musculus, UniProt P13597); assay: Affinity of open I-domain for murine ICAM-1; format: binding
Experimental: (§1) Briefly, recombinant mutant αL I-domain stabilized in the open conformation (K287C/K294C), or recombinant wild-type αL I-domain from amino acid residue G128 to Y307, were cloned into pET11b (Novagen) and expressed in E. coli induced with 1 mM IPTG for 4 hours. The recombinant proteins were purified from inclusion bodies by solubilization of inclusion bodies in 6M guanidine HCl and were refolded by dilution in the presence of 0.1 mM Cu^2+/phenanthrolin to enhance formation of disulfide bonds. Protein was concentrated by ammonium sulfate precipitation, dialyzed, and purified over a monoQ ion-exchange column. […] The recombinant proteins were then purified by gel filtration and concentrated by Centriprep. For BIAcore™ analysis, recombinant ICAM-1, ICAM-2 and ICAM-3 Fc chimeras were immobilized on the BIAcore™ sensor chip by an amine-coupling method. Recombinant αL I-domains were flowed in, and BIAcore™ assays were performed with Tris-buffered saline supplemented with 1 mM MgCl2 or 2 mM EDTA, at a flow rate of 10 μl/minute at 25° C.
To analyze binding kinetics, different concentrations of open I-domain were tested for ligand binding (FIG. 9, Panels B, D and F).

[3] = test system: murine T lymphoma cell line EL-4; assay: PMA-induced LFA-1-dependent homotypic aggregation of EL-4 cells; format: cell-based; settings: 50 ng/ml PMA, 2 hours at 37° C.
Experimental: Cells were incubated in a 96 well plate in the presence of 50 ng/ml PMA and varying amounts of soluble I-domains.

ICAM-1 [4] = biological target: T1, ICAM-1; assay: BIAcore binding of soluble αL I-domains to ICAM-1
Experimental: as §1
Target sequence in this assay (P05362 28-480 limits assumed): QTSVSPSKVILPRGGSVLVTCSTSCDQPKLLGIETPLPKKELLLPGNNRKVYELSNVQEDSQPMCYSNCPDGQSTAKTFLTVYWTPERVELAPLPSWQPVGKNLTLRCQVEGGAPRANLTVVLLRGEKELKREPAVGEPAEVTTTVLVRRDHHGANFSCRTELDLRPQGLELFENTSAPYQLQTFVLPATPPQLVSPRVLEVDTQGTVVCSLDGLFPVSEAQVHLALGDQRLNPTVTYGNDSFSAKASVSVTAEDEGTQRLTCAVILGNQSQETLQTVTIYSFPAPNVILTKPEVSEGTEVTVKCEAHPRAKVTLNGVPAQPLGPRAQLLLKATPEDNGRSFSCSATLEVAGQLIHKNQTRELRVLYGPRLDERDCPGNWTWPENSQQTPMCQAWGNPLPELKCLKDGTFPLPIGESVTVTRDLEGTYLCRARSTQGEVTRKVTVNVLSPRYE

[5] = BIAcore, 1:1 interaction model, 1 mM MgCl2, 25° C.

murine ICAM-1, sequence (P13597 28-537): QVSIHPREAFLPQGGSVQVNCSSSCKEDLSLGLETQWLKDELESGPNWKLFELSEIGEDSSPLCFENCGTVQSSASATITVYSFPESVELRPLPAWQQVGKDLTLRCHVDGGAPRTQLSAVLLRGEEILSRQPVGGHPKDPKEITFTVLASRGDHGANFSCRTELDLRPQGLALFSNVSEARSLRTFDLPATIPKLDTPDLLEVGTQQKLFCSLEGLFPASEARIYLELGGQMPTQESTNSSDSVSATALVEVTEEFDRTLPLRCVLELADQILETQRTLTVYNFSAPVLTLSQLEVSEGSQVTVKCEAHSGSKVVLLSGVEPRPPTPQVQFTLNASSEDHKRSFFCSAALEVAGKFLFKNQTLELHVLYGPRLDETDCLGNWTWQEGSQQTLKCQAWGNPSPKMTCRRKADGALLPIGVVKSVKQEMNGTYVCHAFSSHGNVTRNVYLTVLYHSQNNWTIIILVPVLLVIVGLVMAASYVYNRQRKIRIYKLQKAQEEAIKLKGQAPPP

binding of 293T transient transfectants to immobilized ICAM-1 (ICAM-1 [1]; 293T, no activating antibody): constitutively strong binding
binding of K562 cells expressing isolated I-domains to immobilized ICAM-1 (ICAM-1 [1]; I-domain on cell surface via PDGFR transmembrane domain): strong binding
binding of isolated I-domain to ICAM-1 after EDTA treatment (ICAM-1 [1]; K562, 1 mM EDTA): abolished
binding of K562 stable transfectants to immobilized ICAM-1 with activating mAb CBRLFA-1/2 (ICAM-1 [1]; K562, CBRLFA-1/2 10 μg/ml): did not further enhance binding
binding of K562 transfectants to ICAM-1 in the presence of EDTA (ICAM-1 [1]; K562, intact LFA-1, EDTA): abolished
binding of K562 stable transfectants to immobilized ICAM-1 (ICAM-1 [1]; K562, no activating antibody): strongly bound
effect of DTT treatment on binding to ICAM-1 (ICAM-1 [1]; K562 transfectants, DTT 10 mM in L15/FBS): abolished
affinity for murine ICAM-1 (murine ICAM-1): nanomolar range
interaction of I-domain with ligands in the presence of EDTA (ICAM-1 [4]; 2 mM EDTA, ligands ICAM-1, -2, -3): abolished
Koff, open I-domain binding to ICAM-1 (ICAM-1 [4]; [5]): 0.0230 s⁻¹
Kon, open I-domain binding to ICAM-1 (ICAM-1 [4]; [5]): 128000 M⁻¹ s⁻¹
Kon, interaction of αL I-domains with ICAM-1 (ICAM-1 [4]; calculated by Koff/KD): 128000 M⁻¹ s⁻¹
Koff, interaction of αL I-domains with ICAM-1 (ICAM-1 [4]; curve fitting of dissociation phase, 1:1 binding model): 0.0230 s⁻¹
B1: K287C/K294C: human αL (LFA-1) I-domain with K287 and K294 replaced by cysteines; high affinity locked open; tested in intact LFA-1, cell-surface and soluble forms (protein)
chain: GNVDLVFLFDGSMSLQPDEFQKILDFMKDVMKKLSNTSYQFAAVQFSTSYKTEFDFSDYVKRKDPDALLKHVKHMLLLTNTFGAINYVATEVFREELGARPDATKVLIIITDGEATDSGNIDAAKDIIRYIIGIGKHFQTKESQETLHKFASKPASEFVCILDTFECLKDLFTELQKKIY
notes: human αL (LFA-1) I-domain with K287 and K294 replaced by cysteines; tested in intact LFA-1, cell-surface and soluble forms
inhibition of adhesion of LFA-1 expressing cells to immobilized ICAM-1 [2]: strongly inhibited
inhibition of PMA-induced LFA-1 dependent homotypic aggregation [3]: inhibited
